According to PMC7324491, “Non-native proteins inhibit the ER oxidoreductin 1 (Ero1)–protein disulfide-isomerase relay when protein folding capacity is exceeded” (The Journal of Biological Chemistry, 2020):
Blank lines part the entries; values can stand above or below the molecule they belong to. Ends that are not written are not given here. * marks the point of attachment. Biotin = O=C1N[C@H]2[C@H](CS[C@H]2CCCCC(=O)*)N1

Legend:
Ero1α–PDI = biological target: T1, Ero1α–PDI (Homo sapiens, UniProt P07237); experiment: oxygen consumption assay; type: biochemical; settings: pH 7.0, 50 μM inhibitor pre- or postactivation, 10 μM PDI, 10 mM GSH; control compound
T1 construct: gene P4HB; with ERO1-like protein alpha
T1 sequence (P07237 18-508): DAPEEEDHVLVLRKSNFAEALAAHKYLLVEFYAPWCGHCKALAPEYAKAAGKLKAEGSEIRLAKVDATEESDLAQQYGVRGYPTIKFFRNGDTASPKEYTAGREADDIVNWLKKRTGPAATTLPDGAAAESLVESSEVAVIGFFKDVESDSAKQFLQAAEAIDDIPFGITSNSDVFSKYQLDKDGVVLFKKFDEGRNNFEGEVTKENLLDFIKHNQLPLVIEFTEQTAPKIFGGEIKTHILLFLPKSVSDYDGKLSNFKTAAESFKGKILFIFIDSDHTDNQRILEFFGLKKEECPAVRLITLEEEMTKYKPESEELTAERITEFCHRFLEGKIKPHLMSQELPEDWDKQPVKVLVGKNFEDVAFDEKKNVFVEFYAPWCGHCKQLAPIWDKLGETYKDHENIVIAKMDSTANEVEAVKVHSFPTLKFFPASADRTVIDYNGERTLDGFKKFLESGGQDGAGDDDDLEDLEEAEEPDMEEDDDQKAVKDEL
T1 sequence (Q96HE7 24-468 partner): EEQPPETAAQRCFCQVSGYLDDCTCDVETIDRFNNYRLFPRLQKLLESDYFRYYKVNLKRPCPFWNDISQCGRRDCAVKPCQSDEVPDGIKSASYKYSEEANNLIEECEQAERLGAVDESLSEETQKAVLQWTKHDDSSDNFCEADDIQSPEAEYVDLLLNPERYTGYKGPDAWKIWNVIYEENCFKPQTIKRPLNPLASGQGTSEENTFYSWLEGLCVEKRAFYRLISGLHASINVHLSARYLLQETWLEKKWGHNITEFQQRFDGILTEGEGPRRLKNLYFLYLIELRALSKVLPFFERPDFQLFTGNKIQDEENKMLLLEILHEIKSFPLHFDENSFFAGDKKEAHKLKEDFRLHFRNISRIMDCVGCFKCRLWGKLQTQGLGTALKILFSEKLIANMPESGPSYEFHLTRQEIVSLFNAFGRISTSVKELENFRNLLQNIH

[1] = biological target: T2, His-tagged mature protein disulfide-isomerase (PDI) (human, UniProt P07237 18-508); experiment: BLI; biotin-labeled β-hairpin of Ero1α immobilised on SA biosensors; PDI at 0, 0.5, 1.0, 2.0, 4.0 μM; 30 °C; 20 mM sodium phosphate, pH 7.0, 300 mM NaCl, 1 mM DTT; 1:1 model; settings: both partners purified
T2 construct: protein disulfide-isomerase (PDI), human, mature protein, domains a, b, b', a'; calculated mass of the construct 56379 Da; Treated with 1 mM DTT before ITC and in the BLI assays with the β-hairpin
T2 sequence (P07237 18-508): as the sequence (P07237 18-508) above

[2] = biological target: T2, His-tagged mature protein …; experiment: BLI; KFWWFS immobilised on AR2G biosensors; PDI at 0, 0.5, 1.0, 2.0 μM; 30 °C; 20 mM sodium phosphate, pH 7.0, 300 mM NaCl; 1:1 model, association and dissociation fitted separately; settings: both partners purified
[3] = biological target: T2, His-tagged mature protein …; experiment: ITC; 600 μM KFWWFS injected into 27 μM PDI; 25 °C; 20 mM sodium phosphate, pH 7.0, 0.15 M NaCl; both treated with 1 mM DTT for 5 min before the measurement; settings: both partners purified

Molecule: C[C@]12CC[C@@H]3c4ccc(O)cc4CC[C@H]3[C@@H]1CC[C@H]2O [17α-estradiol]
inhibition at 50 μM (Ero1α–PDI): it inhibited both activation and catalytic turnover, but only marginally

Kd [1]: 4 µM
B1: β-hairpin of Ero1α (RYLLQETWLEKKWGH) with an N-terminal biotin label (peptide)
peptide: Biotin-RYLLQETWLEKKWGH
notes: protruding β-hairpin of human ER oxidoreductin 1 alpha (Ero1α), with a tryptophan at the tip (Trp272); also called β-hairpin loop of Ero1α; source: synthetic peptide, synthesized by GenScript

Kd [2]: 12.7 µM
Kd [3]: 6.8 µM
stoichiometry N [3]: 0.97
B2: peptide KFWWFS (peptide)
peptide: KFWWFS
notes: model peptide without cysteine that mimics the exposed hydrophobic core of protein substrates; Immobilised on AR2G biosensors for BLI; also called model peptide; source: lyophilized peptide dissolved in 10 mM HCl
